Assay: yeast display, Sf9 membrane polyspecificity reagent, FACS + sequencing; frameworks hold sequencing errors
In short: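 A synthetic nanobody library was expressed on Saccharomyces cerevisiae BJ5465 by galactose induction for 36–48 hours. The library was stained for 1 hour at 4 °C with 10% biotinylated, detergent-solubilized Sf9 membrane reagent and enriched with streptavidin microbeads before FACS. Low and high (top ~1%) gates were set on anti-HA fluorescence for expression and streptavidin fluorescence for reagent binding, and each polyreactivity label reflects the gate of origin.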

QVQLVESGGGLVQAGGSLRLSCAASGRIFPYYTMGWYRQAPGKERELVAAITSGGITYYADSVKGRFTISRDNAKNTVYLQMKSLKPEDTAVYSCAALHSGKYTRYKYGYWGQGTQVTVSS
polyreactivity (PSR sort gate): high polyreactivity

QVQLVESGGGLVQAGGSLRLSCAASGSTFAIYAMGWYRQAPGKERELVAAITRGSTSYADSVKGRFTISRDNAKNTVYLQMYSLKPEDTAVYYCAADSSRYGVIRDFDYWGQGTQVTVSS
polyreactivity (PSR sort gate): high polyreactivity

QVQLVESGGGLVQAGGSLRLSCAASGFIFGTYVMGWYRQAPGKERELVAAISESGGRTYYADSVKGRFTISRDNAKNTVYLQMNSLKPEDTAVYYCNAPHHRYDWGQGTQVTVSS
polyreactivity (PSR sort gate): high polyreactivity

QVQLVESGGGLVQAGGSLRLSCAAYVRIIYDYAKGWYRQAPGKERELVAAISKGGGSTYYADSVKGRFTISRDNAKNTVYLQMNSLNPEDTAVYYCAASTSHTTDTRYDYLGQGTQVTVSS
polyreactivity (PSR sort gate): low polyreactivity

QVQLVESVGGLVQAGGSLRLSCAASGRTFYFYAMGWYRQAPGKERELVAAITSGDTTHYADSVKGRFTISRDNAKNTVYLQMNSLKPDDTAVYYCAADKFKKISGYQRRSNYWGQGTQVTVSS
polyreactivity (PSR sort gate): low polyreactivity

QVQLVESGGGLVHAGGSLSLSCAASGIIFPWYTMGWYRKAPGKERELVAAISSGGRTNYADSVKGRFTISRDNATNTVFLQMNSLKQEDTAVYYCGAKYYRDRDWGQGTQVTVSS
polyreactivity (PSR sort gate): high polyreactivity

QVQLVESGGGLVQAGGSLRLSCAASGRTLRRYAMGWYRQAPGKERELVAAISRSGSSTYADSVKGRFTISRDNAKNTVYFQMNSLKPEDTAVYYCNAVYGYSAHGYYYRYDYWGQGTQVTVSS
polyreactivity (PSR sort gate): high polyreactivity

QVQLVESGGGLVQAGGSLRLSCAASGSIFADYAMGWYRQAPGKERELVAAITGSGGRTYYADSVKGRFTISRDNAKNTVYLQMNSLKPEDTAVYYCAVRHRYTRAYWGRDYWGQGTQVTVSS
polyreactivity (PSR sort gate): low polyreactivity

QVQLVESGGGLVQAGGSLRLSCAASGSIFRYYVMGWYRQAPGKERELVAAINGGGGSTYYADSVKGRFTISRDNAKNTVYLQMNSLKPEDTAVYYCNAVGGTRGKYPYFKYGYWGQGTQVTVSS
polyreactivity (PSR sort gate): high polyreactivity

QVQLVESGGGLVQAGGSLRLSCAASGFTFFNYAMGWYRQAPGKERELVAAISRSGGGTYYADSVKGRFTISRDNAKNTDYLQMNSLKPEDTAVYYCNKRGTHGYTYRKFDYWGQGTQVTVSS
polyreactivity (PSR sort gate): high polyreactivity

QVKLVESGGGLVQAGGSLSLSCDASGNTFVRNVMGSYRQEPGKERELLAAIRSGTRTYYADSVKGRFTISRDNAKNTVYLQINSLKPEDTAVYYCATYRTYNSYRYDYWGQGTQVTVSS
polyreactivity (PSR sort gate): high polyreactivity

QVQLLESGGGLVQAGGSLRLSCAASGGTFRVYAMGWYRQAPVKEWELVAAISSGGSTNYADSVKGRFTISRDNAKNTVYLQMNSLIPEDTAVSYCNAKYRYRFARSPIYFYWGQGTQVTVSS
polyreactivity (PSR sort gate): low polyreactivity

QVQLVESGGGLVQAGGSLRLSCAASGIIFDYYAMGWYRQAPGKERELVAAINRNGGTTYYADSVKGRFTISRDNAKNSVYLQMNSLKPEDTAVYYCAAVDFGWITYYYWGQGTQVTVAS
polyreactivity (PSR sort gate): high polyreactivity

QVQLEESGGGLVQAGGSLRLSCAASGFIFGKNDMGWYRQAPWKERELVAAITIGGSTNYADSVKGRFTISRDNAKNTVYLQMNSLKPEDTAVYYCNADSYHYGTSLYNYWGQGTQVTVSS
polyreactivity (PSR sort gate): low polyreactivity

QVQLVESGGGLVQAGGSLRLSCAASGSIFWSYAMGWYRQAPGKERELVASITRSGGSTYYADSVKGRFTISRDNAKNTVYLQMNSLKPEDTAVYYCNARRTTRWGSSKYEYDYWGQGTQVTVSS
polyreactivity (PSR sort gate): high polyreactivity

QVQLVESGGGLVQAGGSLRLSRAASGITFRFYAMGWYRQAPGKERQVVARISSSGSRTYYADSVKVRFTISRDNAKNTVYLQMNSLKPEDTAVYYCNAVRRRYQSLLQGDYWGQGTQVTVSS
polyreactivity (PSR sort gate): high polyreactivity

QVQLVESGGGLVQAGGSLRLICAASGRTFVPYAMGWYRQAPGKERELVAAINSGGSTYYADSVKGRFTSSRDNAKNTVYLQMNSLKPADTAVYDCAAEYWNSRFSYAYGYWGQGTQVTVSS
polyreactivity (PSR sort gate): high polyreactivity

QVQLVESGGGLVQAGGSLRLSCAASGSTFGQYALGWYRQAPGKERELVATISSGSTYYADSVKGRFTISRDNAKNTVYLQMNSLKPEDTAVYYCAARRIHTTSSRGYYWGQGSQVTVSS
polyreactivity (PSR sort gate): high polyreactivity

QVQLVESGGGLVQAGGSLRLSCAASGRIFYQYAMGWYRQAPGKERELVASISRSGTRTYYADSVKGRFTISRDNAKNTVYLQMNSLKPEDTAVYYCAAGYNLYYGVIYGFDYWGQGTQVTVSS
polyreactivity (PSR sort gate): high polyreactivity

QVQLVESGGGLVQAGGSLRLSCAASGRTFEYNGMGWYSQAPGKEWELVAAITRGGSTYYADSVKGRFTISRDNAKNTVYLQMNSLKPEDTAVYYCAAVVGWSRYKWLEYWGQGTQVTVSS
polyreactivity (PSR sort gate): low polyreactivity

QVQLVESVGGLVQAGGSLRLSCAASGSIFGYYAMGWYRPAPGKERELVATITWGGGSTYADSVKGRFTISRDNAKNTVYLQMNSLKPEDTAVYYCNAGYRYTSAQVTWEYDYWGQGTQVTVSS
polyreactivity (PSR sort gate): low polyreactivity

QVQLQESGGGLEHAGGSLRLSCAASGNIFLSIFMGWYRQAPGKEREFVAGIGSGTNTNYADSVKGRFTISRDNANNTVYLQMNSLKPEDTAVYYCNAVWGSHYPTYAKLSRDYWGQGTQVTVSS
polyreactivity (PSR sort gate): high polyreactivity

QVQLVESGGGLVQAGGSLRLSCAASGGTFRGYAMGWYRQAPGKERELVAAISRGTSTNYADSVKGRFTISRDNAKNTVYLHLNSLKPEDTAVYYCNAAKRGWYYDYYYWGQGTQVTVSS
polyreactivity (PSR sort gate): high polyreactivity

QVQLVESGGGLVQAGGSLRLSCAASGSIFGFNAMGWYRQAPGKERELVAAITNSGVRTYYADSVKGRFTISRDNAKNTVYLQMNSLKPEDTAVYYCAAEPDTYWYTYDYWGQGTQVTVSS
polyreactivity (PSR sort gate): low polyreactivity

QLQLGESAGGLVQAGGSLRLSCAASGSIFGLNAIGWYIQAPGKERELVAAISSGGSTYYADSVKGRFTISRDNAKNTVYLQMNSLKPEDTAVYYCNAYFQYYDYWGLGTQVTVSS
polyreactivity (PSR sort gate): low polyreactivity

QVQLVESGGGLVQAGGSLRLSCAASGFIFGLYGMGWYRPAPGKERELVAAISTSSGITYYADSVKGRFTISRDNAKNTVYLQMNSLKPEDTAVYYCAARGHYYDYWGQGTQVTVSS
polyreactivity (PSR sort gate): low polyreactivity

QLQLVESGGGLVQAGGSLRLSCAASGSIFRFNAMGWYRQAPGKERELVAAISGDSGSTYYADSVKGRFTISRDTAKNTVYFQMNCLKPEDTAVYYCNARHGKIIFYLERYDYWGHGTQVTVSS
polyreactivity (PSR sort gate): low polyreactivity

QVQLVESGGGLGQAGGSLRISCAASGRTFGIYAMGCYRQAPGKLRELVATISWRGGSTYYADSVKGRFTISRDNAKNTVYLQMNSLTPEDTAVYYCAAGPGYLILISDIYGYWGQGTQVTVSS
polyreactivity (PSR sort gate): low polyreactivity

QVQLVESGGGLVQAGGSLRLSCAASGYTYGNYAMGWYRQAPGKERELVAAITSRGGRTYYADSVKGRFTISRDNAKNTVYLQMNSLKPEDTAVYYCAARGRYKDGYRMDYWGQGTQVTVSS
polyreactivity (PSR sort gate): high polyreactivity

QVQLVESGGGLVQAGGSLRLSCAASGRWLYAMGWYIQAPAKERELVAAISRSGGSTNYADSVKGRFTISRDNAKNTVYLQMNSLKPEDTAVYYCATKYNADTRYDYWGQGTQVTVSS
polyreactivity (PSR sort gate): low polyreactivity

QVQLVESGGGLVQGGGSLRLSCAASGRIFDRYAMGWYRQAPGKERELVAAISSSGGSTYYADSVKGRFTISRDNAKNTVYLQMNSLKPEDTPVYYCNADYYVSKLDYWGQGTQVTVSS
polyreactivity (PSR sort gate): high polyreactivity

QVQLVESGGGLVQAGGSLRLSCAASGRILSGNAMGWYRQAPGKERELVAAITNAAITKYADSVKGRFTISRDNAKNTVYLQMNSLKPEDTAVYYCATDRYAYKLYDYWGQGTQVTVSS
polyreactivity (PSR sort gate): low polyreactivity
